Measured values from US20090291879A1 (published 2009).

B1: Tissue extracted bovine chondroadherin (ligand, UniProt Q27972 25-361, looked up)
chain: CPQNCHCHSDLQHVICDKVGLQKIPKVSEKTKLLNLQRNNFPVLATNSFRAMPNLVSLHLQHCQIREVAAGAFRGLKQLIYLYLSHNDIRVLRAGAFDDLTELTYLYLDHNKVTELPRGLLSPLVNLFILQLNNNKIRELRSGAFQGAKDLRWLYLSENSLSSLQPGALDDVENLAKFYLDRNQLSSYPSAALSKLRVVEELKLSHNPLKSIPDNAFQSFGRYLETLWLDNTNLEKFSDGAFLGVTTLKHVHLENNRLHQLPSNFPFDSLETLTLTNNPWKCTCQLRGLRRWLEAKTSRPDATCASPAKFRGQHIRDTDAFRGCKFPTKRSKKAGRH

Key:
[1] = target: T1, Integrin α2β1 on human chondrosarcoma cells (K9, K105) (human, UniProt P17301 30-1181; P05556 21-798); assay: adhesion of k105 cells to coated peptide, light microscopy; receptor as attributed in paragraph 163 and paragraph 181
T1 construct: whole, on cells; The cells are not engineered; also called integrin α2β1 receptor; β1 integrin

[2] = target: T1, Integrin α2β1 on human chondrosarcoma …; assay: adhesion of K9 cells to coated protein, 1 hour, N-acetylglucosaminidase read-out; receptor as attributed in paragraph 181
Protocol: To test cell binding, the chondrosarcoma cells or bovine chondrocytes were suspended in PBS containing 0.1% BSA, 25 U/ml collagenase and added to the wells (50,000/well), in the absence or presence of various peptide pools or the synthetic peptides (200, 100, 50, 25, 12.5 μg/ml). Non-adherent cells were removed after 1 hour and adhesion was determined by measuring lysosomal N-acetylglucosaminidase (12). Adhesion and spreading was visualized by light microscopy. In the time studies, k105 cells were allowed to adhere for 30 minutes, unbound cells were removed and medium without serum supplemented with or without peptides (250 μg/ml), β1 integrin antibody (clone P4C10, Gibco BRL), EDTA (5 mM) was added. Cell morphology was visualized by light microscopy after 1, 3 and 20 hours.
48-well tissue culture dishes were coated with 5 μg/ml collagen type II, tissue extracted bovine chondroadherin, human chondroadherin expressed in EBNA cells and human chondroadherin expressed in E. coli and blocked for non-specific binding with BSA. The cells were allowed to adhere for 1 hour at 37° C. Nonadherent cells were removed by washing and adhesion was determined by analyzing lysosomal N-acetylglucosaminidase. Adhesion is expressed in number of cells, 50,000 cells/well were seeded.

T1 sequence (P17301 30-1181, chain 1 of 2): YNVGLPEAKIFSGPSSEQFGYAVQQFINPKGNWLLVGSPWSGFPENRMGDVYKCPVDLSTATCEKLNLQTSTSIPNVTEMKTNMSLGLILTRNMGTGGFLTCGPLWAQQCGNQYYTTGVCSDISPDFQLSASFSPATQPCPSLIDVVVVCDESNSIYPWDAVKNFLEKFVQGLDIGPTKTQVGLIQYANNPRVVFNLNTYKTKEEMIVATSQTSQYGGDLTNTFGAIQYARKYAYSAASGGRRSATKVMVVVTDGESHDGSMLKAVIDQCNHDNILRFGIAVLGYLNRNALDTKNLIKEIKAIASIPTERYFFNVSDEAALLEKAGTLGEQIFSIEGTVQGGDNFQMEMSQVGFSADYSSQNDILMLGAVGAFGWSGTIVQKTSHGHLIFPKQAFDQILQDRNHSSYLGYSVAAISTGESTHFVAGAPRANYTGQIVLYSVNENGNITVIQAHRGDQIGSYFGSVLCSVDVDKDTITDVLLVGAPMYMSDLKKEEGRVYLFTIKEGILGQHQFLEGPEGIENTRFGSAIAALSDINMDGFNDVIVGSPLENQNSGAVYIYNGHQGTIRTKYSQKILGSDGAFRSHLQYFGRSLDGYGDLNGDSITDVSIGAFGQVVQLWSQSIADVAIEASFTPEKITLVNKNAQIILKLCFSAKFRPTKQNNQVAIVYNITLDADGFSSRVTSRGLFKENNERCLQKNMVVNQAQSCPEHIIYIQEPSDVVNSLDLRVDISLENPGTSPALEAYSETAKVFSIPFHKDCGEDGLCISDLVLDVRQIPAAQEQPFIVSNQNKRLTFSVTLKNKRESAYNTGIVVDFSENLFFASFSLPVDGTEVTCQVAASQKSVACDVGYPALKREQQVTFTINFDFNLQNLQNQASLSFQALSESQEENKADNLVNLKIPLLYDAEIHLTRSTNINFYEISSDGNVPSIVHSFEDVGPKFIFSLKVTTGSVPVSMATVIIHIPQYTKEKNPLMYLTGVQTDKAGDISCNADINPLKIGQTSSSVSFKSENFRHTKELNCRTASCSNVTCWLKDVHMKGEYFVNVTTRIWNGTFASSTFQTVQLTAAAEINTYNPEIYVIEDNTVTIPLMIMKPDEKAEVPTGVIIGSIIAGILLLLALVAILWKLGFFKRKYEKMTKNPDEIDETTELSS
T1 sequence (P05556 21-798, chain 2 of 2): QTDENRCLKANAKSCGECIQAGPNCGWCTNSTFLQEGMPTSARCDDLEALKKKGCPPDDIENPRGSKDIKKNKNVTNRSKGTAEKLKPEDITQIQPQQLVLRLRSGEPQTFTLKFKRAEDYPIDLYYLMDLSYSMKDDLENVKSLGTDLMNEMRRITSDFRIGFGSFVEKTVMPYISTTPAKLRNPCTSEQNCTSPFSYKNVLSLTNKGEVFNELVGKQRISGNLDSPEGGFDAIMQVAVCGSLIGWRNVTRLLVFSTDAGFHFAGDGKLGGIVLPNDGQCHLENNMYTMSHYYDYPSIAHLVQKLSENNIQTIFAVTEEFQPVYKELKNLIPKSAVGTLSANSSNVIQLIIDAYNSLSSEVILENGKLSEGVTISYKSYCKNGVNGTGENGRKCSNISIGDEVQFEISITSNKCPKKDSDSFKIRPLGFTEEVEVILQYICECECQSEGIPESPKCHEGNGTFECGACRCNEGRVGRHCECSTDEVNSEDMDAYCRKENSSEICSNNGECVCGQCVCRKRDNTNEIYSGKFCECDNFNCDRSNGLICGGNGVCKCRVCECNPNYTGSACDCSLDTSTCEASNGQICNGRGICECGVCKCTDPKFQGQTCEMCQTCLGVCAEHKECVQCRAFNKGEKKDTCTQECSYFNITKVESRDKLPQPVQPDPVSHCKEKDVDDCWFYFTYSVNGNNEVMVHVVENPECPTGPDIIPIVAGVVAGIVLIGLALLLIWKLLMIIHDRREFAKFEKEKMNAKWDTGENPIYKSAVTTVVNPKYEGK

| Binder | binding result [1] | binding result [2] |
| --- | --- | --- |
| CQLRGLRRWLEAK (also called 12-mer peptide) [Synthetic peptide CQLRGLRRWLEAK (12-mer chondroadherin peptide plus an N-terminal cysteine)] | binds | – |
| B1 | – | binds |
